Measured values from US20250121104A1 (FUSION PHARMACEUTICALS, published 2025).

How the values were obtained:
mouse cMET (recombinant) = mouse cMET (recombinant) (mouse, UniProt P16056 25-929, limits assumed); test: SPR (BIAcore T200), antibody captured on anti-human IgG, soluble antigen as analyte
mouse EGFR (recombinant) = target: T1, mouse EGFR (recombinant) (mouse, UniProt Q01279 25-647); test: as above
T1 construct: also called murine EGFR

[1] = target: T2, cynomolgus monkey EGFR (recombinant, soluble monomeric) (cynomolgus monkey, UniProt P55245 25-645 (rhesus entry)); test: as above
T2 construct: also called cyno EGFR

[2] = target: T3, human EGFR (recombinant, soluble monomeric) (human, UniProt P00533 25-645); test: as above
T3 construct: also called EGFR antigen

Semaphorin 3a = target: T4, Semaphorin 3a (UniProt Q14563 21-771, limits assumed); test: ELISA, antigen coated at 1 µg/mL, antibody titrated from 10 µg/mL
T4 sequence (looked up): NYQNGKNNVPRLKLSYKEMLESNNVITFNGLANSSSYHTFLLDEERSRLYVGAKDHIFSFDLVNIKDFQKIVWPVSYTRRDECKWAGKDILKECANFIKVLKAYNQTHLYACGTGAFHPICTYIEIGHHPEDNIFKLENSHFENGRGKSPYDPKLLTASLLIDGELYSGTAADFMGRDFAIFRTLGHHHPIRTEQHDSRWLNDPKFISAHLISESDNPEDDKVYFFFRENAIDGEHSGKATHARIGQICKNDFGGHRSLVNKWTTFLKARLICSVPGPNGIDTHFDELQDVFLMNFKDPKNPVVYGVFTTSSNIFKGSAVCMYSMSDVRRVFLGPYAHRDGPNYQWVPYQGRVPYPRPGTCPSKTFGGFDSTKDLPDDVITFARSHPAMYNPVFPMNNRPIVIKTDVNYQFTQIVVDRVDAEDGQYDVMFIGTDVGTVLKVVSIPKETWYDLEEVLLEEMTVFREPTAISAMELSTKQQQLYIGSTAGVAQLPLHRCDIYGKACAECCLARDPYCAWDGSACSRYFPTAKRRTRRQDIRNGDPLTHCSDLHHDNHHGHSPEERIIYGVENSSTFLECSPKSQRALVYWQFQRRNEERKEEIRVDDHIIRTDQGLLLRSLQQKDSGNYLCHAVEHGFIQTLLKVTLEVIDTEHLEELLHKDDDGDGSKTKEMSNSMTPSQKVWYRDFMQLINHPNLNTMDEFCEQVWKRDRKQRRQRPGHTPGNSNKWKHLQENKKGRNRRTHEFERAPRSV
Procedure: (§1) Specificity for EGFR and cMET species paralogs and closely related family members was determined by ELISA. Briefly, antigen solutions were prepared in PBS at 1 μg/mL and 50 microliters was coated onto half area ELISA assay plates. Plates were washed and blocked with 1% BSA in PBS containing 0.005% Tween-20 (PBS-T) for one hour at room temperature. […] Wells were incubated with 50 microliters of the indicated primary antibodies diluted in PBS-T in a 1:3 dilution series, starting at 10 μg/mL and ending at 0.002 μg/mL, except for the HER4 binding mAb control, MAB1131, for which the series started at 1 μg/mL. The wells were washed 4 times in PBS-T, then 50 μl of goat anti-human Fab HRP-labeled secondary antibody, diluted 1:5000 in PBS-T, was added to each well and incubated for one hour at room temperature. […] 50 microliters of TMB stop solution was added to all wells and the absorbance was read at 450 nm on a SpectraMax M5 microplate reader. Data were analyzed in the SoftMax Pro 5 software and plotted using GraphPad Prism 7 graphing software.
(§2) To determine the species cross reactivity, ELISA assays were carried out as described above.

Ron (CD136) = target: T5, Ron (CD136) (UniProt Q04912 25-957, limits assumed); test: as above
T5 sequence (looked up): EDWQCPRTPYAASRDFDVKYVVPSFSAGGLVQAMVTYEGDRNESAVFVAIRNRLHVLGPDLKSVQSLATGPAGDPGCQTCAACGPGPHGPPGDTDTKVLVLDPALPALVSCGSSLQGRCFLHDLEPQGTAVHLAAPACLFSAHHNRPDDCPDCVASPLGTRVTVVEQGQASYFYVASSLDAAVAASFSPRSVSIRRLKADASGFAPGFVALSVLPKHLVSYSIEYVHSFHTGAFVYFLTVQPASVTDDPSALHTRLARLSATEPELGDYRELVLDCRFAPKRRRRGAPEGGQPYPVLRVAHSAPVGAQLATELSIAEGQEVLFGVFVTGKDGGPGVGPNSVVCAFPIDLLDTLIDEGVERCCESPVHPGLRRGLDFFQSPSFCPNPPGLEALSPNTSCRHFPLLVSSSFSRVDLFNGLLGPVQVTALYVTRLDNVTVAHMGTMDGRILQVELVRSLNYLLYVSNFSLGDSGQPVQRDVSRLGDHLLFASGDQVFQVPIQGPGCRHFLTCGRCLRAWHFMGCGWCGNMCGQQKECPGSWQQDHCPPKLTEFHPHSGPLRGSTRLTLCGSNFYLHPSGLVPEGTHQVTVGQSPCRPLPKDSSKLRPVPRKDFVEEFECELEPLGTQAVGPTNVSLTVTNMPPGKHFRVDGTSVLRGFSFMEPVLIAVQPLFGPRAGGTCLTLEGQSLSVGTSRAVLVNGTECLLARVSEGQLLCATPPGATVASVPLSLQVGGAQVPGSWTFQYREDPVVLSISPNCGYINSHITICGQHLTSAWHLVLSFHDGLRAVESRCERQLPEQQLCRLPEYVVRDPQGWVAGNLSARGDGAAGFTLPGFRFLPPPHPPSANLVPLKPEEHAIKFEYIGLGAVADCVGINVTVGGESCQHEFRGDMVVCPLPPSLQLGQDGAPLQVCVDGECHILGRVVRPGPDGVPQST
Procedure: as §1, §2

[3] = target: T6, cynomolgus monkey cMET (recombinant, soluble monomeric) (cynomolgus monkey, UniProt A0M8R7 25-932 (Papio anubis entry)); test: SPR (BIAcore T200), antibody captured on anti-human IgG, soluble antigen as analyte
T6 construct: also called cyno cMET
T6 sequence (A0M8R7 25-932 S170N/I621T): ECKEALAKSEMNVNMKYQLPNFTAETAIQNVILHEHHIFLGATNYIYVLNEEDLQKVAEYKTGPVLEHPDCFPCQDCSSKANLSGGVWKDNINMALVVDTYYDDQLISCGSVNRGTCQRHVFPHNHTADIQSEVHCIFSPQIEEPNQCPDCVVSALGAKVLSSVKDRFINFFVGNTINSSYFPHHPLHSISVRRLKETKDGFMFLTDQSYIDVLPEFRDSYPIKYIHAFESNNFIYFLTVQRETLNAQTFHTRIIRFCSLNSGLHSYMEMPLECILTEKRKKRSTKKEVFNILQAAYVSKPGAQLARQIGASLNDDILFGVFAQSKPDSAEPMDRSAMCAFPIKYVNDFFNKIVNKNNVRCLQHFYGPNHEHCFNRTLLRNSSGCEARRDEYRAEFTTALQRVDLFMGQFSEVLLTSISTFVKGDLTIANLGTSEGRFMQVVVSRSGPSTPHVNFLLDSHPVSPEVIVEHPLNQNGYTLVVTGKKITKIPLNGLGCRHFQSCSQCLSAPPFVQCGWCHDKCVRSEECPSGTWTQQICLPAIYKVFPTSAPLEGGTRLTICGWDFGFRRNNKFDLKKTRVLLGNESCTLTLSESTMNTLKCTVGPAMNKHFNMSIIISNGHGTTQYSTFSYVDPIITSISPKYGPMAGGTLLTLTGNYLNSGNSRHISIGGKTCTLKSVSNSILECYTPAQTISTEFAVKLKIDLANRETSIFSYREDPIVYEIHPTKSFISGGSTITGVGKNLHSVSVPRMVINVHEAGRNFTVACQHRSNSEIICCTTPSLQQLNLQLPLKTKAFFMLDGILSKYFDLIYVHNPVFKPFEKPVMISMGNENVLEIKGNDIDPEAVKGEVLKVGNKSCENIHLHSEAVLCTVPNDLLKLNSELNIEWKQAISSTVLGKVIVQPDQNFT

[4] = target: T7, human cMET (recombinant, soluble monomeric) (human, UniProt P08581 25-932); test: as above
T7 construct: also called cMET antigen; His-tagged cMET antigen
T7 sequence (P08581 25-932): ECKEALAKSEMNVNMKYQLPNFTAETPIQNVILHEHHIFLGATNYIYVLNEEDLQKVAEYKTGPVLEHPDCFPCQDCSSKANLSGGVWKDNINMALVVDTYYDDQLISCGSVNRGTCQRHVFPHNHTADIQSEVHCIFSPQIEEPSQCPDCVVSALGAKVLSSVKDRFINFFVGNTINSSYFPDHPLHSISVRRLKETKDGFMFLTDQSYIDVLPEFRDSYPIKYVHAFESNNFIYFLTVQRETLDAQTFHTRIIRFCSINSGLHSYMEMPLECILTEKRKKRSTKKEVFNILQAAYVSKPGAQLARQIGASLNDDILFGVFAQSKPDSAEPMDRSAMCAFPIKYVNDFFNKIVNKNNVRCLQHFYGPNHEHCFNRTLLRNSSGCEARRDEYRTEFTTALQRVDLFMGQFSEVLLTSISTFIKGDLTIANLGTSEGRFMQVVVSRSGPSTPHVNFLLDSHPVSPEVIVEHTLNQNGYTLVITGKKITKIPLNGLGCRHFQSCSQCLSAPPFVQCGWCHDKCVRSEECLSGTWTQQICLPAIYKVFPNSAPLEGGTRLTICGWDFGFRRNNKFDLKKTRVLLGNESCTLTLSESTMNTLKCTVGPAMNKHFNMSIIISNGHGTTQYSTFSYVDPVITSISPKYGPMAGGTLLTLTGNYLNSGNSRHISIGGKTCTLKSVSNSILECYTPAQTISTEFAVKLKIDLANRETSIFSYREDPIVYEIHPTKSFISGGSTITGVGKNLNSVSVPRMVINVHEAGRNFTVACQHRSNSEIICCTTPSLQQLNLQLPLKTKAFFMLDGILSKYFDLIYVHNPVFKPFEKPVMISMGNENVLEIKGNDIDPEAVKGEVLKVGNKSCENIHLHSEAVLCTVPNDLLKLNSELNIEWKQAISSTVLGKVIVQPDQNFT

Sequence of mouse cMET (recombinant) (P16056 25-929 limits assumed): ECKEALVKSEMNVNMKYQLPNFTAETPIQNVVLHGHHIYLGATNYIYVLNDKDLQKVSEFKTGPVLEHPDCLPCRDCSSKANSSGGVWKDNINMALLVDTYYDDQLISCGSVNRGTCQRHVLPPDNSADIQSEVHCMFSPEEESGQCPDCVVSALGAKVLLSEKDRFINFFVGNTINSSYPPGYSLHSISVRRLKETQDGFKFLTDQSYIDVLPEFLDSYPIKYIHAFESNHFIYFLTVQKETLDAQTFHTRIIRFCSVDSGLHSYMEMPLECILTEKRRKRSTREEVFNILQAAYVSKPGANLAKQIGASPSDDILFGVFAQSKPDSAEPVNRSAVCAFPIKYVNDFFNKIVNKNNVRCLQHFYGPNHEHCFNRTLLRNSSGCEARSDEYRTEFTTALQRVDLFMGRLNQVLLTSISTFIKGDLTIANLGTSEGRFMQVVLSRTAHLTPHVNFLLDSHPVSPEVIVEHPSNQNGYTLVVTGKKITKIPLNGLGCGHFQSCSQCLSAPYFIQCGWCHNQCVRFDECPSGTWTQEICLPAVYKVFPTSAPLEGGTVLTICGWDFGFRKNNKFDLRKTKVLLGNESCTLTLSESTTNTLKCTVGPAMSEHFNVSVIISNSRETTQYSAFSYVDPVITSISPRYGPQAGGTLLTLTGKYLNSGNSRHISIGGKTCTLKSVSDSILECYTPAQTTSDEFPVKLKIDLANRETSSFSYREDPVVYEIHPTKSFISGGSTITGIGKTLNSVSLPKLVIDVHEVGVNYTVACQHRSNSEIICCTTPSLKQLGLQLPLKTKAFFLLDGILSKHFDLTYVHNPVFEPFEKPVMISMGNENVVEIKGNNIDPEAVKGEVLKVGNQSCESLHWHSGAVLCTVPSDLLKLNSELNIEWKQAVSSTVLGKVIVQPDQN

B1: B09-57 IgG (antibody, V domains shown)
VH: QVQLVQSGAEVKKPGASVKVSCKASGYTFTDYYIHWVRQATGQGLEWMGWMNPNSGNTGYAQKFQGRVTMTRDTSISTAYMELSSLRSEDTAVYYCARGQGYTHSWGQGTMVTVSS
VL: DIQMTQSPSTLSASVGDRVTITCRASEGIYHWLAWYQQKPGKAPKLLIYKASSLASGVPSRFSGSGSGTEFTLTISSLQPDDFATYYCQQYSNYPPTFGGGTKLEIK
notes: also called B09-GL; anti-cMET antibody
B1: no binding (tested: 200 nM) (mouse cMET (recombinant)); no binding (tested: 200 nM) (mouse EGFR (recombinant)); no binding (tested: 200 nM) [1]. B1: no binding (tested: 200 nM) [2]; no binding (tested: 10 µg/mL) (Semaphorin 3a); no binding (tested: 10 µg/mL) (Ron (CD136)).

B2: RAA22 IgG (antibody, V domains shown)
VH: QVQLVQSGAEVKKPGSSVKVSCKASGGTFSDNDFSWVRQAPGQGLEWMGAIVAVFRTETYAQKFQDRVKITADISTRTTYMELSSLRSEDTAVYYCARRLMSAISGPGAPLLMWGQGTLVTVSS
VL: QSALTQPRSVSGSPGQSVTISCTGTSSDVGGYNYVSWYQQHPGKAPKLMIYDVSKRPSGVPDRFSGSKSGNTASLTISGLQAEDEADYYCSSYTSSDTLEIFGGGTKLTVL
notes: also called anti-EGFR antibody clone RAA22
B2: no binding (tested: 200 nM) (mouse cMET (recombinant)); no binding (tested: 200 nM) [3]; no binding (tested: 200 nM) [4]. B2: no binding (tested: 10 µg/mL) (Semaphorin 3a); no binding (tested: 10 µg/mL) (Ron (CD136)).
